Publication PMC6727773 (Molecular Biology of the Cell, 2019)

Target: T1, His-MPDZ-PDZ1-4 (aa 1-700) WT (human, UniProt O75970-3 1-700)
T1 sequence (looked up): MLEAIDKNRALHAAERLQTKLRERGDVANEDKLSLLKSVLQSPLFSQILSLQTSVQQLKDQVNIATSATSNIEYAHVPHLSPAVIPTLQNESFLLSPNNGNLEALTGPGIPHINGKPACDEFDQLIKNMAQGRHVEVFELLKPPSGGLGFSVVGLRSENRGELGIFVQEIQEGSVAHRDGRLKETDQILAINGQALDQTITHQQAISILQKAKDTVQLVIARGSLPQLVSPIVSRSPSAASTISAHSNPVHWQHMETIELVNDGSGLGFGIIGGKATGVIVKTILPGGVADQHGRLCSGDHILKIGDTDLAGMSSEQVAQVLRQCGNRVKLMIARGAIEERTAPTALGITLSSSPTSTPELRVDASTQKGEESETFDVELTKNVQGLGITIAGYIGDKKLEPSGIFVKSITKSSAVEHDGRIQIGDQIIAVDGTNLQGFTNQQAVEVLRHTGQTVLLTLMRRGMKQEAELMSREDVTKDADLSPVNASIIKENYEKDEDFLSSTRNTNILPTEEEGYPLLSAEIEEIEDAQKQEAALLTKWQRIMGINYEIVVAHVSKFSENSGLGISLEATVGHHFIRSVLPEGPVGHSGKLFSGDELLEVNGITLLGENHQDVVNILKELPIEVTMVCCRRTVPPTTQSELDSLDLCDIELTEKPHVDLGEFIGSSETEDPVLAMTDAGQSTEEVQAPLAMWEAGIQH
Test: pull-down

- binding result: binds
B1: GST-DAPLE (aa 1908-2028) (domain or fragment, human, UniProt Q9P219 1908-2028, looked up)
chain: IATAGAGAAAAGSGSNSQLLHFSPAAAPAARTKPKAPPRSGEVATITPVRAGLSLSEGDGVPGQGCSEGLPAKSPGRSPDLAPHLGRALEDCSRGSVSKSSPASPEPGGDPQTVWYEYGCV
